This is an account of results in patent US20220016257A1 (Daiichi Sankyo, published 2022).

Assay [1] concerns the target T1, EC3-deleted human CDH6 (EC3 deletion mutant, on cells) (human, UniProt P55285 54-790).
T1 construct: Full-length human CDH6 lacking EC3; Cloned in p3xFLAG-CMV-9; also called EC3-deleted hCDH6
T1 sequence: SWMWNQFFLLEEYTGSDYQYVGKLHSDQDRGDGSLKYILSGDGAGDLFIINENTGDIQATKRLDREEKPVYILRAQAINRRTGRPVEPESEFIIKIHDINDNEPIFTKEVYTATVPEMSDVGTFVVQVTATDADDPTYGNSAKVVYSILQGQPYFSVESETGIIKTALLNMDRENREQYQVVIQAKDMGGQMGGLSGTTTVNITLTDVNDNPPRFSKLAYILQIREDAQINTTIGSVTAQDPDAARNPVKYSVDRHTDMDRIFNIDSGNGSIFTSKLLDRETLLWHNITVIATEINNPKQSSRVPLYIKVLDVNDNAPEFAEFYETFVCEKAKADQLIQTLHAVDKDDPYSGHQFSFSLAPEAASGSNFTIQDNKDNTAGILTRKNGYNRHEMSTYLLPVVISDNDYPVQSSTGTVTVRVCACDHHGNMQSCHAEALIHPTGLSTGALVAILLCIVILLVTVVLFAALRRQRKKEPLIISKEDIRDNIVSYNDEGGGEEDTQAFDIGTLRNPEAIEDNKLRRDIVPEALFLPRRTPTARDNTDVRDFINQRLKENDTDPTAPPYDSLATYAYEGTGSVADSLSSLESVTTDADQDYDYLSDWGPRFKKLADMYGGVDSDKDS
The assay can be described thus: flow cytometry, 293α cells transiently expressing EC3-deleted hCDH6 (open) against untransfected cells (shaded), anti-rat IgG-FITC [4]. How it is done: The cells were cultured overnight under conditions of 37° C. and 5% CO₂, treated with TrypLE Express (Thermo Fisher Scientific Inc.), and thereafter, a cell suspension was prepared. […] Thereafter, the cells were suspended by the addition of the anti-CDH6 monoclonal antibody (clone No: rG019), which had been prepared in Example 1)-7, or rat IgG control (R&D Systems, Inc.) (final concentration: 20 nM). The cells were left standing at 4° C. for 1 hour. The cells were washed twice with PBS supplemented with 5% FBS, and then suspended by the addition of Anti-Rat IgG (whole molecule)-FITC antibody produced in rabbit (Sigma-Aldrich Co. LLC) that had been 50-fold diluted with PBS supplemented with 5% FBS. The cells were left standing at 4° C. for 1 hour. The cells were washed twice with PBS supplemented with 5% FBS, followed by detection using a flow cytometer (Canto II; BD Biosciences). The data was analyzed using FlowJo (TreeStar, Inc.). In the histograms of FIGS. 2-1 to 2-2, the abscissa depicts FITC fluorescence intensity indicating the amount of the antibody bound, and the ordinate depicts cell count. […] Fluorescence intensity is enhanced when the antibody binds to full-length hCDH6 or each EC domain deletion mutant on the surface of cells.
Background: Flow cytometry measures light scatter and fluorescence of single cells or particles in a stream.

The target in assay [2] is T2, cynomolgus monkey CDH6 (full-length, on cells) (cynomolgus monkey, UniProt P55285 54-790 (human entry)).
T2 construct: Expressed from pcDNA3.1-cynoCDH6 on transfected cells; also called cynoCDH6
T2 sequence: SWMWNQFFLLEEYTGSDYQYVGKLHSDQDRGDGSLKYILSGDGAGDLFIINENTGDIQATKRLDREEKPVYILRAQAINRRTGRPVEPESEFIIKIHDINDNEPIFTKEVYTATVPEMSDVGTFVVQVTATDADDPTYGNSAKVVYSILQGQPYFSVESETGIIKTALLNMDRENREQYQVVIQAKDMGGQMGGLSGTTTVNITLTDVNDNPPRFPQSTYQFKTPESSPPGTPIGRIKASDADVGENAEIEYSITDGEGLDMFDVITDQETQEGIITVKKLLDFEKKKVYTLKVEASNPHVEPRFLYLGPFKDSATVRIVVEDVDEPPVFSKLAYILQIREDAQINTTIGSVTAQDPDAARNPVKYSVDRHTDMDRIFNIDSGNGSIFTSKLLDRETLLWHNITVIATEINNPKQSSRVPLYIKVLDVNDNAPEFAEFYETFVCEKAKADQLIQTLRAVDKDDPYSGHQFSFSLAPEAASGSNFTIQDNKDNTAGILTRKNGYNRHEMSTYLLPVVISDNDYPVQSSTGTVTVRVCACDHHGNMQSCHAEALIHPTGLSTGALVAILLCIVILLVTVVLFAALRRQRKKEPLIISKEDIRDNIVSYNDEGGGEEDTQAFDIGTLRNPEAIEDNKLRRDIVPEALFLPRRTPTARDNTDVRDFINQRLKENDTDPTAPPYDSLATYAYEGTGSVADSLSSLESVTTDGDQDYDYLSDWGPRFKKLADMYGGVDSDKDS
The assay can be described thus: Cell-ELISA and flow cytometry screening of hybridoma supernatants on transfected cells. How it is done:
A coloring reaction was carried out with occasional stirring. Thereafter, 1 M HCl was added to the plate (100 μL/well) to terminate the coloring reaction, followed by measurement of the absorbance at 490 nm using a plate reader (ENVISION: PerkinElmer, Inc.).
The obtained cell suspension was used in flow cytometry analysis.
The binding specificity to cynomolgus monkey CDH6 of an antibody produced from the human CDH6- and cynomolgus monkey CDH6-binding antibody-producing hybridomas that had been selected by Cell-ELISA in Example 1)-4 was further confirmed by flow cytometry. […] Thereafter, the cells were suspended by the addition of the culture supernatant from each hybridoma. The cells were left standing at 4° C. for 1 hour. The cells were washed twice with PBS supplemented with 5% FBS, and thereafter, the cells were suspended by the addition of Anti-Rat IgG FITC conjugate (Sigma-Aldrich Co. LLC) that had been 500-fold diluted with PBS supplemented with 5% FBS. The cells were left standing at 4° C. for 1 hour. The cells were washed twice with PBS supplemented with 5% FBS, and then re-suspended in PBS supplemented with 5% FBS and 2 μg/ml 7-aminoactinomycin D (Molecular Probes, Inc.), followed by detection using a flow cytometer (FC500; Beckman Coulter, Inc.).
For orientation: In an ELISA, binding on a coated surface is turned into a signal by an enzyme label.

B1: rat anti-CDH6 monoclonal antibody rG019 (antibody, IgG2b, V domains shown)
VH: QVQLQQSGAELVKPGSSVKISCKASGYTFTRNFMHWIKQQPGNGLEWIGWIYCGDGETEYNQKFNGKATLTADRSSSTAYMELSRLTSEDSAVYFCARGVYGGFAGGYFDFWGQGVMVTVSS
VL: DIQMTQSPSLLSASVGDRVTLNCKASQNIYKNLAWYQQKLGEGPKLLIYDANTLQTGIPSRFSGSGSGSDFTLTISSLQPEDVATYFCQQYYSGWAFGGVTNLELKRA
notes: Rat antibody purified from hybridoma supernatant; also called rG019 antibody; clone rG019
Consider B1, for which the binding result in assay [1] was “no binding (tested: 20 nM)”; in assay [2], “binds”.
